The values below come from patent publication US20050042213A1 (INSIGHT BIOPHARMACEUTICALS, published 2005).

T1: pro-heparanase (H60), purified recombinant human 60 kDa latent heparanase (human, UniProt Q9Y251 36-543)
T1 sequence: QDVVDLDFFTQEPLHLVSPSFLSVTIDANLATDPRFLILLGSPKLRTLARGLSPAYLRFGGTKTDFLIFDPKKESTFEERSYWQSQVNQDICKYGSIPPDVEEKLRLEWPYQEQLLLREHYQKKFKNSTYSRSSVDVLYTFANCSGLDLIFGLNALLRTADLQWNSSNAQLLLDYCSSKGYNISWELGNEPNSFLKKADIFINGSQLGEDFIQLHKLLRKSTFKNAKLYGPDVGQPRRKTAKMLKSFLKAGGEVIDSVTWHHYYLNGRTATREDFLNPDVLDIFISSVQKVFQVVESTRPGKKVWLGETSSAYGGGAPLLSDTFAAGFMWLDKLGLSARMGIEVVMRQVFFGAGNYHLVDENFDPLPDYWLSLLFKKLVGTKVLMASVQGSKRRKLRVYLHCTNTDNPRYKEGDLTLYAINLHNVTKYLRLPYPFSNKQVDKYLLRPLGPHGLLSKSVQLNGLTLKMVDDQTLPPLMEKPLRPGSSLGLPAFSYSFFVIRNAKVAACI

T2: active heparanase (H53), heterodimer of the 8 kDa and 45 kDa subunits (human, UniProt Q9Y251 36-109; Q9Y251 158-543)
T2 sequence 1: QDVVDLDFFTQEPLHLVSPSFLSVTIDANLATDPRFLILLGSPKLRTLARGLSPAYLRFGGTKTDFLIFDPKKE
T2 sequence 2: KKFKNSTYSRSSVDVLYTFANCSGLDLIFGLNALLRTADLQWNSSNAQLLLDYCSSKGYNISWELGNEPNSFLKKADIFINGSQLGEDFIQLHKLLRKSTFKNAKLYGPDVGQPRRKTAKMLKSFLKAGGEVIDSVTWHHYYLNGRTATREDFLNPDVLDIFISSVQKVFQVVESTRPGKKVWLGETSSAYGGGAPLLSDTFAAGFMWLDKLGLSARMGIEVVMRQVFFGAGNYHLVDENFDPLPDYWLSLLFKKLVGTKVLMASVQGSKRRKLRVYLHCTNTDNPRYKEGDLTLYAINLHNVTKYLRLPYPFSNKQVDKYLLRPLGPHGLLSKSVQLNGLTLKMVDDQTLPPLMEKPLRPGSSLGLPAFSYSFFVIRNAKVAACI

The target of one assay is T1, pro-heparanase (H60), purified …. The experiment in a line: cell-based or functional assay.
In the case of PRFLILL [P8-11], the “IC50 H60 (µM), H60 activation in the cell-based assay” value was 65 µM.

Another assay deals with T2, active heparanase (H53), heterodimer of …. The experiment in a line: cell-based or functional assay.
With CPAYLRFGGTKTDFLIFDPLLE [Pep-7], the “IC50 H53” value came to 7 µM.
The same measure, in the same setting: then RFLILL [P8-18], with 5 µM; and PRFLILLGSPKLR [P8-4], with 2.3 µM; and DPRFLILL [P8-16], with 6 µM.
For the molecule FLILLGSPKLRTL [P8-8], the “IC50 H53” value was 8 µM.
For PRFLILL [P8-11], the “IC50 H53” value was 1.4 µM.
With LRTLARGLSPAYL [P8-5], the “IC50 H53” value is 18 µM.

For the next assay the target is unchanged. The experiment in a line: cell-based or functional assay. The source holds these as a separate data set.
In the case of CTWHHYYLNGRTATR [Pep-25], the “IC50 Heparanase” value is 21 µM.
